These results are taken from the emibetuzumab library of Makowski et al. (2022).

B1: VH:VL chains; a variant is named by its letters at X, in order (parent)
chain 1: QVQLVQSGAEVKKPGASVKVSCKASGYTFTDYXMHWVRQAPGQGLEWMGXVNPNXXXTTYNQKFEGRVTMTTDTSTSTAYMELRSLRSDDTAVYYCARXNXLDXWGQGTTVTVSS
chain 2: DIQMTQSPSSLSASVGDRVTITCSVSSSVSSIYLHWYQQKPGKAPKLLIYSTSNLASGVPSRFSGSGSGTDFTLTISSLQPEDFATYYCQVYSGYPLTFGGGTKVEIK

In the series the parent is B1. As to the kind of experiment: yeast display scFab, FACS + sequencing. In a few lines:
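Non-specific binding was called from deep sequencing of sorted yeast cells displaying a heavy-chain CDR mutant scFab library. Cells labelled with anti-Myc and biotinylated ovalbumin (260 μg/mL in PBSB, 3 h, room temperature) or soluble membrane proteins (130 μg/mL, 20 min on ice) were FACS-sorted, collecting the top 25% and bottom 10% of binders from two replicates. A sequence was positive when present in ≥3 of 4 pooled positive samples and absent from all negatives, and negative under the converse rule.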
As for YKRRDFGV, the non-specific binding call is on record as “binds”.
Take SKTKSDAV: the non-specific binding call was “no binding”.
As for DKTGDDGS, the entry is “no binding”.
Take FKTGGAAV: the non-specific binding call is given as “binds”.
For ARAETDVY, the non-specific binding call is recorded as “no binding”.
DKTKSDWV: the non-specific binding call is on record as “no binding”.
The result for YKRGGAGS reads “binds”.
As for YKRRDAVY, the entry is “binds”; as for SKTRGAGV, “binds”.
The result for SKRKSSSD reads “binds”.
As for YKTRGSLD, the non-specific binding call is reported as “binds”.
The result for SKTKSSAS reads “no binding”; that for YKRAAYGD, “binds”; that for YKTKSDGV, “no binding”.
As for VKRGSSGA, the entry is “binds”; as for VKRGSSGD, “binds”; as for YKTKSDWV, “no binding”.
Consider VKRRSVGA, for which the non-specific binding call is “binds”.
With YKRGDDLV, the non-specific binding call is on record as “no binding”.
As for ARAAGDWV, the entry is “no binding”.
The result for FKKGSSGD reads “binds”; that for FKKGSSGV, “binds”.
On to AKTKSDVA, for which the non-specific binding call is “no binding”.
The result for SKTKSSSA reads “no binding”; that for VKRGSSLF, “binds”.
As for YKKRGAGV, the entry is “binds”; as for YKTGDDGV, “no binding”.
For the variant FKTKDSVV, the non-specific binding call is reported as “binds”.
As for DKKKDVVF, the entry is “binds”; as for YRAAGAGS, “binds”; as for FKKGSAVA, “binds”.
Take FKKGSAVV: the non-specific binding call was “binds”.
With VRAEGSVA, the non-specific binding call is reported as “binds”.
As for SKRKSSGA, the entry is “binds”.
As for VRAGADGV, the entry is “no binding”; as for YKTRSAWS chain 1 M48I, “binds”.
Consider VKRGSSVD, for which the non-specific binding call is “binds”.
Regarding DKTGDDVF, the non-specific binding call is “no binding”.
On to AKRGSAAV, for which the non-specific binding call is given as “binds”.
Take SKKTGDLY: the non-specific binding call is recorded as “no binding”.
The result for YKRGDAGY reads “no binding”; that for VKREASVV, “binds”; that for YKTRDDAV, “no binding”.
In the case of YKRRSSVF, the non-specific binding call is “binds”.
The result for YRAETDVA reads “no binding”; that for VKRGSSSD, “binds”.
As for YKTRSSAD, the non-specific binding call is given as “binds”.
Regarding YKRGDDGD, the non-specific binding call is listed as “no binding”.
For VKTGGDGD, the non-specific binding call is “no binding”.
Regarding YKRGSAVD, the non-specific binding call is listed as “binds”.
On to VKKTGSGA, for which the non-specific binding call was “binds”.
As for DKTGNDVV, the entry is “no binding”; as for DKTGNDVA, “no binding”.
In the case of VKKRGAWS, the non-specific binding call is listed as “binds”.
As for SKKRGASA, the entry is “binds”; as for AKTRDDVA, “no binding”.
With YKRGSSSD, the non-specific binding call is on record as “binds”.
On to YKRGSSSY, for which the non-specific binding call is “binds”.
As for YKRGSDGA, the non-specific binding call was “binds”.
The result for YRAETDGV reads “no binding”.
As for AKTRDFVA, the entry is “binds”.
The result for AKTGNDVA reads “no binding”; that for FRAEGSVA, “binds”; that for YKTGGASS, “binds”.
As for YKTGGALY, the non-specific binding call was “no binding”.
As for YRAEGYVV, the entry is “binds”; as for YKTESYWY, “binds”; as for YKRAAVWD, “binds”.
As for SKTKSSGA, the entry is “no binding”; as for YKRGSSVV, “binds”.
As for YKRGSSVD, the entry is “binds”; as for YKRGSSVS, “binds”.
In the case of DKREADVA, the non-specific binding call is reported as “no binding”.
For FKKGSVGD, the non-specific binding call is recorded as “binds”.
As for YKRGDAWD, the entry is “no binding”; as for YKRGDAWA, “no binding”.
As for YKKTGYWV, the entry is “binds”; as for VKREAVGV, “binds”; as for YKRRNSGD, “binds”.
YKTGGAGV: the non-specific binding call is recorded as “binds”.
The result for VKRATVLA reads “binds”; that for VRAEASVV, “binds”; that for VKRGSAAA, “binds”.
In the case of VKRGSAAV, the non-specific binding call was “binds”.
For the variant FKKGSFGA, the non-specific binding call is listed as “binds”.
The result for DKTKGDWV reads “no binding”.
With FKRGSSSY, the non-specific binding call was “binds”.
The result for FKRKNSAA reads “binds”; that for FKKGSAAV, “binds”; that for AKTKSDGV, “no binding”.
The result for YRAGAAVA reads “binds”; that for FKTGDAWS, “binds”.
The result for FKTRDFAY reads “binds”.
Regarding SKKRGSGA, the non-specific binding call was “binds”.
As for FKTKNYVV, the entry is “binds”; as for YKKTGDLY, “no binding”.
As to AKKRGAWS, the non-specific binding call is on record as “binds”.
Consider VKTKGVVD, for which the non-specific binding call was “binds”.
Consider YKTGDSVD, for which the non-specific binding call is “no binding”.
In the case of FKTESAAV, the non-specific binding call was “binds”.
For FKKGDAVS, the non-specific binding call is reported as “binds”.
As for FRAEGSLD, the entry is “binds”.
Take YKRESAAV: the non-specific binding call was “binds”.
The result for YKTGGSGA reads “binds”; that for SKTRGAWD, “binds”.
The result for VKTGGAVV reads “no binding”.
As for YKRGSASV, the entry is “binds”; as for YKRGSASD, “binds”; as for YKTRGFGA, “binds”.
On to YKRGGSGD, for which the non-specific binding call is recorded as “binds”.
The result for YKRGSAGF reads “binds”.
As for YKRGSAGD, the entry is “binds”; as for SKRETAWS, “binds”; as for SKKRGSWD, “binds”.
Regarding YRAAGSGA, the non-specific binding call is given as “binds”.
The result for SKKGDFWV reads “binds”.
In the case of YKTRGAGD chain 1 Q43R, the non-specific binding call is “no binding”.
The result for SKKTGSVD reads “no binding”; that for YKRGGSSY, “no binding”.
As for FKRRSASV, the entry is “binds”; as for VKRRDSGD, “binds”; as for YKTRGAVS, “binds”.
The result for YKRGSSWD reads “binds”.
Regarding FKKGSYVF, the non-specific binding call was “binds”.
As for YKRGDSSS, the entry is “no binding”; as for FKTEGFVS, “binds”.
As for FKRAGSLA, the entry is “binds”.
The result for YKRGSFVD reads “binds”; that for DKTGDSAD, “no binding”.
In the case of YKRGSSGA, the non-specific binding call was “binds”.
The result for YKRGSSGF reads “binds”; that for YKRGSSGD, “binds”; that for YRAEGSSS, “binds”.
As for YKRGSAAA, the entry is “binds”; as for YKRGDAVF, “no binding”; as for VKTGGDVA, “no binding”.
As for VKTGGDVF, the entry is “no binding”; as for VKTGGDVY, “no binding”.
For DKRKGVAF, the non-specific binding call is “binds”.
As for YKRGGAVV, the entry is “binds”; as for VKTGGAWY, “no binding”; as for FKRRDSVY, “binds”.
The result for DRAETDVY reads “no binding”; that for VRAETDVY, “no binding”.
As for FKKGSSLD, the non-specific binding call is “binds”.
For SKTKSDVV, the non-specific binding call is on record as “no binding”.
SKTKSDVD: the non-specific binding call is reported as “no binding”.
As for SKTKSDVA, the entry is “no binding”; as for DKREADGA, “no binding”; as for VKRATSWD, “binds”.
For FKKGSSAA, the non-specific binding call is reported as “binds”.
As for YKTGSSWD, the entry is “binds”.
The result for FKTKNYAD reads “binds”; that for VKTGGSWA, “no binding”; that for VKTGGSWV, “no binding”.
The result for YRAESAAA reads “binds”; that for YKRRGSAA, “binds”; that for AKTKSDWV, “no binding”.
For the variant YMAEGSGA, the non-specific binding call is recorded as “binds”.
As for YKRRDAWV, the non-specific binding call is reported as “binds”.
With FKRRSFGS, the non-specific binding call was “binds”.
Consider VKRGDDVA, for which the non-specific binding call was “no binding”.
The result for VKRGDDVV reads “no binding”; that for YKRGASLA, “binds”.
As for FKKKDASV, the non-specific binding call is “binds”.
As for FKKGSSWD, the entry is “binds”; as for YKRGSFGA, “binds”.
As for FKTAGSAV chain 1 R67H, the entry is “binds”.
As for YKRESSSV, the entry is “binds”.
For VKRRSSLA, the non-specific binding call is reported as “binds”.
The result for VKTGGSLD reads “no binding”; that for FKKRGAWS, “binds”.
The result for YKRRDASD reads “binds”.
As to YKTGGDGV, the non-specific binding call is reported as “no binding”.
As for FKRKAAAA, the entry is “binds”; as for VKKTGDLY, “no binding”.
As for VRAGADVA, the entry is “no binding”; as for YKKGAAGF, “binds”.
The result for YKKRGAWS reads “binds”; that for YKRESAGY, “binds”; that for SKKRGAAA, “binds”.
With YKRKSASD, the non-specific binding call is recorded as “binds”.
On to ARAAGDVF, for which the non-specific binding call is reported as “no binding”.
As for DKTGDAAV, the entry is “no binding”; as for AKRGAFAD, “binds”.
As for AKTGDSSD, the entry is “no binding”; as for FKRRSVGA, “binds”; as for YKRGDSGF, “no binding”.
The result for YKTRGSAA reads “binds”; that for YKTRGSAD, “binds”; that for VRAGADAV, “no binding”.
As for VRAGADSV, the non-specific binding call was “no binding”.
Turning to YKTGDSWV, the non-specific binding call is listed as “no binding”.
YKRGGSWD: the non-specific binding call is given as “binds”.
The result for YKRGASVA reads “binds”.
The result for FKTKSDAV reads “no binding”; that for ARAASAGA, “binds”.
The result for VKRGSSAA reads “binds”; that for FKRGSSAA, “binds”.
FKTKSAGD: the non-specific binding call is reported as “no binding”.
With SKTKSDGV, the non-specific binding call was “no binding”.
As for SKTKSDGA, the entry is “no binding”; as for SKTKSDGS, “no binding”.
As for YKRGAAGD, the entry is “binds”; as for YRAAGSWS, “binds”; as for SKRRGSLS, “binds”.
With YKRGDDSS, the non-specific binding call was “no binding”.
Turning to VKKGSSLF, the non-specific binding call is given as “binds”.
As to YKKGGSLA, the non-specific binding call is reported as “binds”.
Regarding YKKGGSLD, the non-specific binding call was “binds”.
In the case of FKRGSSLD, the non-specific binding call was “binds”.
As for FKRGSSLF, the entry is “binds”; as for YRAEGALD, “binds”; as for FKRGDAGD, “binds”.
With VKKESSGF, the non-specific binding call was “binds”.
As to VKTGGAGA, the non-specific binding call is given as “no binding”.
Regarding FKRRSSGD, the non-specific binding call is “binds”.
As for YKREGSAV, the non-specific binding call was “no binding”.
For YRAESSGV, the non-specific binding call is “binds”.
Take YKRGSAWV: the non-specific binding call was “binds”.
Regarding YKRGSAWD, the non-specific binding call is “binds”.
In the case of SKTKSDWA, the non-specific binding call was “no binding”.
As for YKRGDASS, the entry is “no binding”; as for VRAGAAGV, “binds”.
Turning to VRAGAAGS, the non-specific binding call is “no binding”.
On to YRAGAASD, for which the non-specific binding call is listed as “binds”.
As for YKTKGSSY, the entry is “binds”; as for SKTRAFVA, “binds”.
As for YKRRSASA, the entry is “binds”; as for YKRGGAAA, “binds”; as for YKKGGSGV, “binds”.
On to YKRRDSVD, for which the non-specific binding call was “binds”.
As for YKTGNDVA, the entry is “no binding”; as for YRAEGAWS, “binds”.
For the variant YRAAGDVA, the non-specific binding call is recorded as “no binding”.
On to YKRGAAWS, for which the non-specific binding call is “binds”.
With YKKGSSLF, the non-specific binding call is recorded as “binds”.
As for VKRGSFVD, the non-specific binding call is “binds”.
For the variant YKTRSAVA, the non-specific binding call is “binds”.
Take VRAEGSSV: the non-specific binding call is “no binding”.
The result for SKRRSVGA reads “binds”.
Take SKKRGAWA: the non-specific binding call was “binds”.
SKKRGAWY: the non-specific binding call is given as “binds”.
For DKRKGVSD chain 1 S88F, the non-specific binding call is recorded as “binds”.
